94 variants from the supplement of paper PMC10567573 can be followed below.

B1: ZNF511 (parent)
chain: AAPFRFVARPVRFPREHQFFEDGD
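Further: lentivirally expressed fusions sorted by FACS into six bins by GFP to DsRed ratio, PSI derived from sequencing read proportions per bin multiplied by bin number.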

In the series the parent is B1. As to the kind of experiment: protein stability index of a GFP-peptide fusion (GPS, HEK-293T) (PSI 1-6); higher = more stable. As to conditions: c terminus: a fixed tail appended.
Regarding AAPFRFVQRPVRFPREHQFFEDGD [A8Q], the protein stability index was found to be 1.66.
In the case of AAPFRFVYRPVRFPREHQFFEDGD [A8Y], the protein stability index was determined as 2.19.
The same measure for AAPFRFVGRPVRFPREHQFFEDGD [A8G]: 2.29; for AAPFRFVPRPVRFPREHQFFEDGD [A8P]: 2.27; for AAPFRFVVRPVRFPREHQFFEDGD [A8V]: 1.59.
The same measure for AAPFRFVNRPVRFPREHQFFEDGD [A8N]: 2.23.
For AAPFRFVTRPVRFPREHQFFEDGD [A8T], the protein stability index worked out at 1.88.
On to AAPFRFVERPVRFPREHQFFEDGD [A8E], for which the protein stability index was found to be 1.98.
As for AAPFRFVDRPVRFPREHQFFEDGD [A8D], the protein stability index turned out to be 1.3.
In the case of AAPFRFVWRPVRFPREHQFFEDGD [A8W], the protein stability index is 2.26.
The figure for AAPFRFVIRPVRFPREHQFFEDGD [A8I] is 2.77; for AAPFRFVHRPVRFPREHQFFEDGD [A8H] it is 2.58.
Turning to AAPFRFVKRPVRFPREHQFFEDGD [A8K], the protein stability index was found to be 2.31.
The same measure for AAPFRFVSRPVRFPREHQFFEDGD [A8S]: 1.82; for AAPFRFVFRPVRFPREHQFFEDGD [A8F]: 2.02.
For AAPFRFVMRPVRFPREHQFFEDGD [A8M], the protein stability index turned out to be 2.74.
The figure for AAPFRFVCRPVRFPREHQFFEDGD [A8C] is 1.96.
The figure for AAPFRFVLRPVRFPREHQFFEDGD [A8L] is 2.15; for AAPFRFVARPVRFPGEHQFFEDGD [R15G] it is 1.74.
The same measure for AAPFRFVARPVRFPLEHQFFEDGD [R15L]: 3.44; for AAPFRFVARPVRFPAEHQFFEDGD [R15A]: 1.94; for AAPFRFVARPVRFPKEHQFFEDGD [R15K]: 2.2.
With AAPFRFVARPVRFPWEHQFFEDGD [R15W], the protein stability index came out at 1.65.
With AAPFRFVARPVRFPEEHQFFEDGD [R15E], the protein stability index worked out at 2.06.
The same measure for AAPFRFVARPVRFPFEHQFFEDGD [R15F]: 2.08; for AAPFRFVARPVRFPPEHQFFEDGD [R15P]: 2.85; for AAPFRFVARPVRFPIEHQFFEDGD [R15I]: 1.98.
As for AAPFRFVARPVRFPVEHQFFEDGD [R15V], the protein stability index is 1.86.
Regarding AAPFRFVARPVRFPQEHQFFEDGD [R15Q], the protein stability index worked out at 2.51.
For the variant AAPFRFVARPVRFPSEHQFFEDGD [R15S], the protein stability index is 2.48.
Take AAPFRFVARPVRFPYEHQFFEDGD [R15Y]: the protein stability index was determined as 1.71.
On to AAPFRFVARPVRFPNEHQFFEDGD [R15N], for which the protein stability index is 1.62.
The figure for AAPFRFVARPVRFPCEHQFFEDGD [R15C] is 2.03.
The figure for AAPFRFVARPVRFPDEHQFFEDGD [R15D] is 1.72.
Consider AAPFRFVARPVRFPMEHQFFEDGD [R15M], for which the protein stability index worked out at 1.89.
As for AAPFRFVARPVRFPHEHQFFEDGD [R15H], the protein stability index was determined as 1.84.
The same measure for AAPFRFVARPVRFPTEHQFFEDGD [R15T]: 2.57.
AAPFRFLARPVRFPREHQFFEDGD [V7L]: the protein stability index turned out to be 3.64.
As to AAPFRFMARPVRFPREHQFFEDGD [V7M], the protein stability index was determined as 3.7.
The same measure for AAPFRFNARPVRFPREHQFFEDGD [V7N]: 3.28.
On to AAPFRFSARPVRFPREHQFFEDGD [V7S], for which the protein stability index is 3.76.
Regarding AAPFRFWARPVRFPREHQFFEDGD [V7W], the protein stability index amounted to 3.67.
The figure for AAPFRFTARPVRFPREHQFFEDGD [V7T] is 3.23; for AAPFRFQARPVRFPREHQFFEDGD [V7Q] it is 3.78.
The figure for AAPFRFYARPVRFPREHQFFEDGD [V7Y] is 3.78; for AAPFRFRARPVRFPREHQFFEDGD [V7R] it is 3.95.
For the variant AAPFRFKARPVRFPREHQFFEDGD [V7K], the protein stability index is 3.6.
The figure for AAPFRFPARPVRFPREHQFFEDGD [V7P] is 4.46; for AAPFRFVARPVEFPREHQFFEDGD [R12E] it is 1.97.
The same measure for AAPFRFVARPVPFPREHQFFEDGD [R12P]: 2.22.
AAPFRFVARPVYFPREHQFFEDGD [R12Y]: the protein stability index came to 1.74.
The same measure for AAPFRFVARPVFFPREHQFFEDGD [R12F]: 1.54.
Turning to AAPFRFVARPVHFPREHQFFEDGD [R12H], the protein stability index was found to be 2.18.
AAPFRFVARPVCFPREHQFFEDGD [R12C]: the protein stability index came to 1.62.
The same measure for AAPFRFVARPVGFPREHQFFEDGD [R12G]: 2.1; for AAPFRFVARPVWFPREHQFFEDGD [R12W]: 1.9.
The figure for AAPFRFVARPVKFPREHQFFEDGD [R12K] is 2.29.
As for AAPFRFVARPVSFPREHQFFEDGD [R12S], the protein stability index is 3.73.
The same measure for AAPFRFVARPVAFPREHQFFEDGD [R12A]: 1.48; for AAPFRFVARPVLFPREHQFFEDGD [R12L]: 2.13; for AAPFRFVARPVVFPREHQFFEDGD [R12V]: 2.23.
As to AAPFRFVARPVQFPREHQFFEDGD [R12Q], the protein stability index came out at 2.44.
Take AAPFRFVARPVIFPREHQFFEDGD [R12I]: the protein stability index is 2.97.
Turning to AAPFRFVARPVDFPREHQFFEDGD [R12D], the protein stability index is 1.85.
The same measure for AAPFRFVARPVNFPREHQFFEDGD [R12N]: 2.37; for AAPFRFVARPVTFPREHQFFEDGD [R12T]: 2.62.
The figure for AAPFRFVARPVMFPREHQFFEDGD [R12M] is 2.03; for AAPFRFVARPVRSPREHQFFEDGD [F13S] it is 1.86; for AAPFRFVARPVRKPREHQFFEDGD [F13K] it is 2.17.
The figure for AAPFRFVARPVRHPREHQFFEDGD [F13H] is 2.66.
AAPFRFVARPVRLPREHQFFEDGD [F13L]: the protein stability index worked out at 2.49.
Regarding AAPFRFVARPVRRPREHQFFEDGD [F13R], the protein stability index came out at 2.32.
Take AAPFRFVARPVRWPREHQFFEDGD [F13W]: the protein stability index turned out to be 2.33.
On to AAPFRFVARPVRQPREHQFFEDGD [F13Q], for which the protein stability index was determined as 2.1.
The same measure for AAPFRFVARPVRTPREHQFFEDGD [F13T]: 2.37.
Turning to AAPFRFVARPVRVPREHQFFEDGD [F13V], the protein stability index was 3.13.
The figure for AAPFRFVARPVRCPREHQFFEDGD [F13C] is 1.8; for AAPFRFVARPVRAPREHQFFEDGD [F13A] it is 2.25; for AAPFRFVARPVRDPREHQFFEDGD [F13D] it is 2.1.
Consider AAPFRFVARPVRMPREHQFFEDGD [F13M], for which the protein stability index turned out to be 2.72.
Take AAPFRFVARPVRNPREHQFFEDGD [F13N]: the protein stability index stood at 1.95.
On to AAPFRFVARPVRGPREHQFFEDGD [F13G], for which the protein stability index came out at 1.74.
As for AAPFRFVARPVRIPREHQFFEDGD [F13I], the protein stability index turned out to be 2.48.
The figure for AAPFRFVARPVREPREHQFFEDGD [F13E] is 2.36; for AAPFRFVARPVRPPREHQFFEDGD [F13P] it is 2.74; for AAPFRFVARPVRYPREHQFFEDGD [F13Y] it is 2.29.
With AAPFRFVAQPVRFPREHQFFEDGD [R9Q], the protein stability index was 3.03.
The figure for AAPFRFVAVPVRFPREHQFFEDGD [R9V] is 2.14; for AAPFRFVAAPVRFPREHQFFEDGD [R9A] it is 2.41.
The figure for AAPFRFVAIPVRFPREHQFFEDGD [R9I] is 1.84.
Regarding AAPFRFVAGPVRFPREHQFFEDGD [R9G], the protein stability index is 2.41.
The figure for AAPFRFVAYPVRFPREHQFFEDGD [R9Y] is 1.84.
Turning to AAPFRFVAPPVRFPREHQFFEDGD [R9P], the protein stability index was found to be 3.54.
In the case of AAPFRFVAKPVRFPREHQFFEDGD [R9K], the protein stability index was 1.95.
